Assay results as given in publication PMC6219920 (Developmental cell, 2018).

Molecular target: wild type CENP-A complexed with histone H4 (human, UniProt P49450 1-140; P62805 1-103)
Experiment: pull-down

B1: MBP-HJURP^1−208 (domain or fragment)
chain: MLGTLRAMEGEDVEDDQLLQKLRASRRRFQRRMQRLIEKYNQPFEDTPVVQMATLTYETPQGLRIWGGRLIKERNEGEIQDSSMKPADRTDGSVQAAAWGPELPSHRTVLGADSKSGEVDATSDQEESVAWALAPAVPQSPLKNELRRKYLTQVDILLQGAEYFECAGNRAGRDVRVTPLPSLASPAVPAPGYCSRISRKSPGDPAKP
binding result: binds
